We go through 1 substance from article PMC8939769.

This test addresses SARS-CoV-2 spike protein receptor binding domain (RBD) (SARS-CoV-2) (UniProt P0DTC2). As to the kind of experiment: ELISA. On the technique in general: In an ELISA, binding on a coated surface is turned into a signal by an enzyme label.

As for “AZD7442 (combination of AZD8895 and AZD1061)”, the IC50 is 0.065 µg/mL.

A word on the IC50: it is the concentration at which inhibition is half-maximal. High values mean weaker potency in that assay, low ones greater potency in that assay.
